# Tests used:
# 4T1 cells = experiment: Wound healing assay; assay type: cell-based; conditions: 10 μM Adenosine or 50 μM ADA or both; wound area at 48 hrs
# Procedure: Briefly, 4T1 cells were cultured to confluence in 35 mm dishes in triplicates. 12 hrs later cell were rinsed with PBS and starved in low serum media (1.5 ml; 0.5%-0.1% serum in RPMI) overnight. […] Pictures were taken immediately of the wound area in phase contrast and 10× and another at 48 hrs. Wound area was calculated using imagej and plotted.
# HT29 cells = experiment: Effect of cAdo on cell proliferation (WST 1); assay type: cell-based; conditions: cAdo at 10 μM and above, WST 1 after 5 days
# Procedure: 10^4 cells were seeded in 96 well dish in 100 μl. 12 hrs later the cells were treated with […] and 50 μM of cAdo and the cells were later assayed for cell number quantitatively using WST 1 reagent after 5 days. Briefly 10 μl of WST1 reagent was added to each well. The cells were incubated for 4 hrs. OD was measured using microtiter plate reader at 460 nm.
# [1] = Stability of mADA enzymatic activity in cell culture medium; assay type: physicochemical; conditions: culture medium of 4T1, MCF7 and T47D cells; supernatant after 24 h, 48 h and 72 h; even after 3 days
# Procedure: 4T1, MCF7 and T47D cells (1×10^5) were grown in 96 wells culture dish.
# [2] = Enzyme activity of mADA-His and mADA-Fc (Adenosine Deaminase Assay Kit); assay type: biochemical; conditions: supernatant media of transfected HEK293F cells; OD at 550 nm
# Procedure: Enzyme activity of mADA-His and mADA-Fc was assayed with Adenosine Deaminase Assay Kit (BQ 014-EALD). Briefly the 180 μl of reagent 1 was added to 96-well plate. Followed by 5 μl of supernatant media obtained from HEK293F cells transfected with mADA-His or mADA-Fc. Later 90 μl of reagent was added to each well and incubated for 8 mins at 37° C. The OD was measured at 550 nm.
# [3] = intramuscular injection; cited from earlier work
molecule,measurement,setting,value
"Nc1ncnc2c1ncn2[C@@H]1O[C@H](CO)[C@@H](O)[C@H]1O [Ado, adenosine, reference compound]",Wound healing ability of 4T1 cells,4T1 cells,marginally promoted wound healing
"Nc1nc(Cl)nc2c1ncn2[C@@H]1O[C@H](CO)[C@@H](O)[C@H]1O [cAdo, 2-chloro Ado]",Rate of cell proliferation,HT29 cells,marginal increase
"mADA: recombinant purified mouse adenosine deaminase (protein, UniProt P03958 2-352, looked up) Adenosine deaminase: AQTPAFNKPKVELHVHLDGAIKPETILYFGKKRGIALPADTVEELRNIIGMDKPLSLPGFLAKFDYYMPVIAGCREAIKRIAYEFVEMKAKEGVVYVEVRYSPHLLANSKVDPMPWNQTEGDVTPDDVVDLVNQGLQEGEQAFGIKVRSILCCMRHQPSWSLEVLELCKKYNQKTVVAMDLAGDETIEGSSLFPGHVEAYEGAVKNGIHRTVHAGEVGSPEVVREAVDILKTERVGHGYHTIEDEALYNRLLKENMHFEVCPWSSYLTGAWDPKTTHAVVRFKNDKANYSLNTDDPLIFKSTLDTDYQMTKKDMGFTEEEFKRLNINAAKSSFLPEEEKKELLERLYREYQ",ADA enzyme activity in cell culture medium,[1],retained its activity
"mADA-His: mADA with His tag expressed in HEK293F cells, purified with Ni-NTA column (protein, UniProt P03958 2-352, looked up, His tag) Adenosine deaminase: AQTPAFNKPKVELHVHLDGAIKPETILYFGKKRGIALPADTVEELRNIIGMDKPLSLPGFLAKFDYYMPVIAGCREAIKRIAYEFVEMKAKEGVVYVEVRYSPHLLANSKVDPMPWNQTEGDVTPDDVVDLVNQGLQEGEQAFGIKVRSILCCMRHQPSWSLEVLELCKKYNQKTVVAMDLAGDETIEGSSLFPGHVEAYEGAVKNGIHRTVHAGEVGSPEVVREAVDILKTERVGHGYHTIEDEALYNRLLKENMHFEVCPWSSYLTGAWDPKTTHAVVRFKNDKANYSLNTDDPLIFKSTLDTDYQMTKKDMGFTEEEFKRLNINAAKSSFLPEEEKKELLERLYREYQ",Enzyme activity in supernatant,[2],enzymatically active
"bADA: bovine adenosine deaminase; PEGylated bADA is FDA approved (protein, UniProt P56658 2-363, looked up) Adenosine deaminase: AQTPAFNKPKVELHVHLDGAIKPETILYYGRKRGIALPADTPEELQNIIGMDKPLSLPEFLAKFDYYMPAIAGCREAVKRIAYEFVEMKAKDGVVYVEVRYSPHLLANSKVEPIPWNQAEGDLTPDEVVSLVNQGLQEGERDFGVKVRSILCCMRHQPSWSSEVVELCKKYREQTVVAIDLAGDETIEGSSLFPGHVKAYAEAVKSGVHRTVHAGEVGSANVVKEAVDTLKTERLGHGYHTLEDATLYNRLRQENMHFEVCPWSSYLTGAWKPDTEHPVVRFKNDQVNYSLNTDDPLIFKSTLDTDYQMTKNEMGFTEEEFKRLNINAAKSSFLPEDEKKELLDLLYKAYGMPSPASAEQCL",Toxicity,[3],not shown any toxicity
"ADA: Adenosine deaminase (EC 3.5.4.4), enzyme degrading Ado into inosine and ammonia (protein, UniProt P00813 2-363, looked up) Adenosine deaminase: AQTPAFDKPKVELHVHLDGSIKPETILYYGRRRGIALPANTAEGLLNVIGMDKPLTLPDFLAKFDYYMPAIAGCREAIKRIAYEFVEMKAKEGVVYVEVRYSPHLLANSKVEPIPWNQAEGDLTPDEVVALVGQGLQEGERDFGVKARSILCCMRHQPNWSPKVVELCKKYQQQTVVAIDLAGDETIPGSSLLPGHVQAYQEAVKSGIHRTVHAGEVGSAEVVKEAVDILKTERLGHGYHTLEDQALYNRLRQENMHFEICPWSSYLTGAWKPDTEHAVIRLKNDQANYSLNTDDPLIFKSTLDTDYQMTKRDMGFTEEEFKRLNINAAKSSFLPEDEKRELLDLLYKAYGMPPSASAGQNL",Wound healing ability of 4T1 cells,4T1 cells,did not alter the wound healing ability
